For this test, the target named is BtAAV-10HB capsid viral proteins (VP1, VP2, VP3) assembled as the capsid (bat adeno-associated virus BtAAV-10HB). Description: cryo-EM structure.

Regarding “BtAAV-10HB capsid viral proteins (VP1, VP2, VP3) assembled as the capsid (complex)”, the stoichiometry N (commonly the number of molecules, sites or subunits per partner or assembly) worked out at 60.

Values taken from article PMC9744130.
